Assay results from the supplement of paper PMC11246515.
± gives the standard deviation of the averaged measurements.

Test: total protein half-life in vivo (active degradation + dilution); higher = more stable protein
[1] = E. coli NCM3722 delta-clpP delta-lon delta-hslV, growth: N-lim chemostat, doubling time 6 h
[2] = E. coli NCM3722 delta-clpP, growth: N-lim chemostat, doubling time 6 h
[3] = E. coli NCM3722 delta-hslV, growth: N-lim chemostat, doubling time 6 h
[4] = E. coli NCM3722 delta-lon, growth: N-lim chemostat, doubling time 6 h
[5] = E. coli NCM3722 delta-smpB, growth: N-lim chemostat, doubling time 6 h
[6] = wild type E. coli NCM3722, growth: C-lim chemostat, doubling time 3 h
[7] = wild type E. coli NCM3722, growth: C-lim chemostat, doubling time 6 h
[8] = wild type E. coli NCM3722, growth: C-lim chemostat, doubling time 12 h
[9] = wild type E. coli NCM3722, growth: N-lim chemostat, doubling time 6 h
[10] = wild type E. coli NCM3722, growth: N-lim chemostat, doubling time 12 h
[11] = wild type E. coli NCM3722, growth: P-lim chemostat, doubling time 6 h
[12] = wild type E. coli NCM3722, growth: P-lim chemostat, doubling time 12 h

MPSIRLADLAQQLDAELHGDGDIVITGVASMQSAQTGHITFMVNPKYREHLGLCQASAVVMTQDDLPFAKSAALVVKNPYLTYARMAQILDTTPQPAQNIAPSAVIDATAKLGNNVSIGANAVIESGVELGDNVIIGAGCFVGKNSKIGAGSRLWANVTIYHEIQIGQNCLIQSGTVVGADGFGYANDRGNWVKIPQIGRVIIGDRVEIGACTTIDRGALDDTIIGNGVIIDNQCQIAHNVVIGDNTAVAGGVIMAGSLKIGRYCMIGGASVINGHMEICDKVTVTGMGMVMRPITEPGVYSSGIPLQPNKVWRKTAALVMNIDDMSKRLKSLERKVNQQD
total protein half-life in vivo [1]: 6.07 ± 0.77 h | total protein half-life in vivo [2]: 6.31 ± 1.8 h | total protein half-life in vivo [3]: 5.56 ± 0.47 h | total protein half-life in vivo [4]: 5.67 ± 0.27 h | total protein half-life in vivo [5]: 5.17 ± 0.14 h | total protein half-life in vivo [6]: 2.94 ± 0.27 h | total protein half-life in vivo [7]: 5.58 ± 0.18 h | total protein half-life in vivo [8]: 12.2 ± 1.4 h | total protein half-life in vivo [9]: 5.06 ± 0.12 h | total protein half-life in vivo [10]: 9.29 ± 0.54 h | total protein half-life in vivo [11]: 5.9 ± 0.48 h | total protein half-life in vivo [12]: 12.7 ± 0.47 h

MPSLSKEAALVHEALVARGLETPLRPPVHEMDNETRKSLIAGHMTEIMQLLNLDLADDSLMETPHRIAKMYVDEIFSGLDYANFPKITLIENKMKVDEMVTVRDITLTSTCEHHFVTIDGKATVAYIPKDSVIGLSKINRIVQFFAQRPQVQERLTQQILIALQTLLGTNNVAVSIDAVHYCVKARGIRDATSATTTTSLGGLFKSSQNTRHEFLRAVRHHN [P0A6T5]
total protein half-life in vivo [1]: 2.49 ± 0.12 h | total protein half-life in vivo [2]: 1.56 ± 0.27 h | total protein half-life in vivo [3]: 1.5 ± 0.11 h | total protein half-life in vivo [4]: 1.82 ± 0.16 h | total protein half-life in vivo [5]: 1.65 ± 0.21 h | total protein half-life in vivo [6]: 2.81 ± 0.23 h | total protein half-life in vivo [7]: 3.46 ± 0.48 h | total protein half-life in vivo [8]: 5.29 ± 0.21 h | total protein half-life in vivo [9]: 1.89 ± 0.34 h | total protein half-life in vivo [10]: 2.02 ± 0.14 h | total protein half-life in vivo [11]: 4.46 ± 0.21 h | total protein half-life in vivo [12]: 8.1 ± 0.27 h

MPVAHVALPVPLPRTFDYLLPEGMTVKAGCRVRVPFGKQQERIGIVVSVSDASELPLNELKAVVEVLDSEPVFTHSVWRLLLWAADYYHHPIGDVLFHALPILLRQGRPAANAPMWYWFATEQGQAVDLNSLKRSPKQQQALAALRQGKIWRDQVATLEFNDAALQALRKKGLCDLASETPEFSDWRTNYAVSGERLRLNTEQATAVGAIHSAADTFSAWLLAGVTGSGKTEVYLSVLENVLAQGKQALVMVPEIGLTPQTIARFRERFNAPVEVLHSGLNDSERLSAWLKAKNGEAAIVIGTRSALFTPFKNLGVIVIDEEHDSSYKQQEGWRYHARDLAVYRAHSEQIPIILGSATPALETLCNVQQKKYRLLRLTRRAGNARPAIQHVLDLKGQKVQAGLAPALITRMRQHLQADNQVILFLNRRGFAPALLCHDCGWIAECPRCDHYYTLHQAQHHLRCHHCDSQRPVPRQCPSCGSTHLVPVGLGTEQLEQTLAPLFPGVPISRIDRDTTSRKGALEQQLAEVHRGGARILIGTQMLAKGHHFPDVTLVALLDVDGALFSADFRSAERFAQLYTQVAGRAGRAGKQGEVVLQTHHPEHPLLQTLLYKGYDAFAEQALAERRMMQLPPWTSHVIVRAEDHNNQHAPLFLQQLRNLILSSPLADEKLWVLGPVPALAPKRGGRWRWQILLQHPSRVRLQHIINGTLALINTIPDSRKVKWVLDVDPIEG
total protein half-life in vivo [1]: 5.492 ± 0.011 h | total protein half-life in vivo [2]: 6.24 ± 0.23 h | total protein half-life in vivo [3]: 5.9 ± 0.067 h | total protein half-life in vivo [4]: 5.89 ± 0.2 h | total protein half-life in vivo [5]: 5.23 ± 0.45 h | total protein half-life in vivo [6]: 2.86 ± 0.03 h | total protein half-life in vivo [7]: 5.85 ± 0.21 h | total protein half-life in vivo [8]: 9.53 ± 1.3 h | total protein half-life in vivo [9]: 5.35 ± 0.074 h | total protein half-life in vivo [10]: 12.2 ± 1 h | total protein half-life in vivo [11]: 6.13 ± 0.2 h

MPVRAQRIQHVMQDTIINFYSTSDDYGDFSNFAAWPIKVDGKTWPTSEHYFQAQKFLDEKYREEIRRVSSPMVAARMGRDRSKPLRKNWESVKEQVMRKALRAKFEQHAELRALLLATAPAKLVEHTENDAYWGDGGHGKGKNRLGYLLMELREQLAIEK
total protein half-life in vivo [3]: 4.25 h | total protein half-life in vivo [8]: 12.3 h

MPVRASIEPLTWENAFFGVNSAIVRITSEAPLLTPDALAPWSRVQAKIAASNTGELDALQQLGFSLVEGEVDLALPVNNASDSGAVVAQETDIPALRQLASAAFAQSRFRAPWYAPDASSRFYAQWIENAVRGTFDHQCLILRAASGDIRGYVSLRELNATDARIGLLAGRGAGAELMQTALNWAYARGKTTLRVATQMGNTAALKRYIQSGANVESTAYWLYR
total protein half-life in vivo [1]: 5.12 ± 0.074 h | total protein half-life in vivo [2]: 5.45 ± 0.15 h | total protein half-life in vivo [3]: 5.034 ± 0.029 h | total protein half-life in vivo [4]: 5.27 ± 0.26 h | total protein half-life in vivo [5]: 4.7 ± 0.44 h | total protein half-life in vivo [6]: 3.03 ± 0.15 h | total protein half-life in vivo [7]: 5.9 ± 0.062 h | total protein half-life in vivo [8]: 11.5 h | total protein half-life in vivo [9]: 5.052 ± 0.012 h | total protein half-life in vivo [10]: 9.31 ± 0.14 h | total protein half-life in vivo [11]: 5.73 ± 0.87 h | total protein half-life in vivo [12]: 12.6 ± 0.52 h

MPWIQLKLNTTGANAEDLSDALMEAGAVSITFQDTHDTPVFEPLPGETRLWGDTDVIGLFDAETDMNDVVAILENHPLLGAGFAHKIEQLEDKDWEREWMDNFHPMRFGERLWICPSWRDVPDENAVNVMLDPGLAFGTGTHPTTSLCLQWLDSLDLTGKTVIDFGCGSGILAIAALKLGAAKAIGIDIDPQAIQASRDNAERNGVSDRLELYLPKDQPEEMKADVVVANILAGPLRELAPLISVLPVSGGLLGLSGILASQAESVCEAYADSFALDPVVEKEEWCRITGRKN [P0A8T1]
total protein half-life in vivo [1]: 5.8 ± 2.4 h | total protein half-life in vivo [2]: 4.39 ± 0.31 h | total protein half-life in vivo [3]: 5.13 ± 1.4 h | total protein half-life in vivo [4]: 4.36 ± 0.61 h | total protein half-life in vivo [5]: 3.91 ± 0.063 h | total protein half-life in vivo [6]: 3.16 ± 0.55 h | total protein half-life in vivo [7]: 4.89 ± 0.5 h | total protein half-life in vivo [8]: 9.36 ± 0.56 h | total protein half-life in vivo [9]: 4.39 ± 0.22 h | total protein half-life in vivo [10]: 6.89 ± 0.88 h | total protein half-life in vivo [11]: 5.37 ± 0.1 h | total protein half-life in vivo [12]: 10.86 ± 0.1 h

MPYKTKSDLPESVKHVLPSHAQDIYKEAFNSAWDQYKDKEDRRDDASREETAHKVAWAAVKHEYAKGDDDKWHKKS [P0AE63]
total protein half-life in vivo [1]: 6.81 ± 0.52 h | total protein half-life in vivo [2]: 4.36 ± 0.59 h | total protein half-life in vivo [4]: 5.1 ± 0.19 h | total protein half-life in vivo [5]: 5.01 ± 2.3 h | total protein half-life in vivo [7]: 5.53 h | total protein half-life in vivo [8]: 6.09 h | total protein half-life in vivo [9]: 3.3 ± 0.35 h | total protein half-life in vivo [10]: 6.77 ± 0.7 h | total protein half-life in vivo [11]: 4.41 h | total protein half-life in vivo [12]: 7.39 ± 1.7 h

MQASQFSAQVLDWYDKYGRKTLPWQIDKTPYKVWLSEVMLQQTQVATVIPYFERFMARFPTVTDLANAPLDEVLHLWTGLGYYARARNLHKAAQQVATLHGGKFPETFEEVAALPGVGRSTAGAILSLSLGKHFPILDGNVKRVLARCYAVSGWPGKKEVENKLWSLSEQVTPAVGVERFNQAMMDLGAMICTRSKPKCSLCPLQNGCIAAANNSWALYPGKKPKQTLPERTGYFLLLQHEDEVLLAQRPPSGLWGGLYCFPQFADEESLRQWLAQRQIAADNLTQLTAFRHTFSHFHLDIVPMWLPVSSFTGCMDEGNALWYNLAQPPSVGLAAPVERLLQQLRTGAPV
total protein half-life in vivo [2]: 5.73 ± 0.018 h | total protein half-life in vivo [3]: 4.02 ± 0.7 h | total protein half-life in vivo [4]: 3.65 ± 0.12 h | total protein half-life in vivo [5]: 3.52 ± 0.35 h | total protein half-life in vivo [6]: 3.86 h | total protein half-life in vivo [7]: 4.84 ± 0.14 h | total protein half-life in vivo [8]: 7.51 ± 0.26 h | total protein half-life in vivo [9]: 4.8 ± 1.8 h | total protein half-life in vivo [10]: 6.05 h | total protein half-life in vivo [11]: 4.89 ± 0.49 h | total protein half-life in vivo [12]: 8.5 ± 0.85 h

MQCALYDAGRCRSCQWIMQPIPEQLSAKTADLKNLLADFPVEEWCAPVSGPEQGFRNKAKMVVSGSVEKPLLGMLHRDGTPEDLCDCPLYPASFAPVFAALKPFIARAGLTPYNVARKRGELKYILLTESQSDGGMMLRFVLRSDTKLAQLRKALPWLHEQLPQLKVITVNIQPVHMAIMEGETEIYLTEQQALAERFNDVPLWIRPQSFFQTNPAVASQLYATARDWVRQLPVKHMWDLFCGVGGFGLHCATPDMQLTGIEIASEAIACAKQSAAELGLTRLQFQALDSTQFATAQGDVPELVLVNPPRRGIGKPLCDYLSTMAPRFIIYSSCNAQTMAKDIRELPGFRIERVQLFDMFPHTAHYEVLTLLVKQ
total protein half-life in vivo [1]: 5.35 ± 0.065 h | total protein half-life in vivo [2]: 3.16 h | total protein half-life in vivo [3]: 4.89 ± 0.31 h | total protein half-life in vivo [4]: 5.02 ± 0.69 h | total protein half-life in vivo [5]: 4.32 ± 0.3 h | total protein half-life in vivo [6]: 3.6 h | total protein half-life in vivo [7]: 5.35 ± 0.8 h | total protein half-life in vivo [8]: > 16 h | total protein half-life in vivo [9]: 5.51 h | total protein half-life in vivo [10]: 10.8 ± 1.5 h | total protein half-life in vivo [11]: 5.7 ± 0.55 h | total protein half-life in vivo [12]: 11.9 ± 1.2 h
